In data set [1] the target is T1, vitamin D binding protein (DBP) (Homo sapiens, UniProt P02774).
T1 construct: purchased Athens Research and Technology 16-16-070307
T1 sequence (P02774 17-474): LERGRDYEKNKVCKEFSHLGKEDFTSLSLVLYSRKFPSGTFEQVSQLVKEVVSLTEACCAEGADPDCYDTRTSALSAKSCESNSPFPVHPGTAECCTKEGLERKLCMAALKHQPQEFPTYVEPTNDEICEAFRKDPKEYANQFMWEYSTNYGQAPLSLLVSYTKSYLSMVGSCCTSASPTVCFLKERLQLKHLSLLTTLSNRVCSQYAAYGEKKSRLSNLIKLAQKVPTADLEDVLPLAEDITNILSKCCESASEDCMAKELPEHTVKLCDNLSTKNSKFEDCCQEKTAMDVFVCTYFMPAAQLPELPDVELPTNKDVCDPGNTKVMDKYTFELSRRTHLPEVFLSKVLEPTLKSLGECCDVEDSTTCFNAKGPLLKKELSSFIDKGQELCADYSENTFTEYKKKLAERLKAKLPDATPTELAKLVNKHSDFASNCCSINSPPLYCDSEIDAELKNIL
In words: Bio-layer interferometry binding of DBP to immobilized biotinylated conjugate. Particulars: BLI steady state fit, DBP 0-75 μM; read-out: KD (binding equilibrium constant). The method, then: EXT607 and EXT608 were biotinylated using the EZ-Link Sulfo-NHS Biotin No-Weigh kit (Thermo Fisher Scientific, Waltham, MA, Catalog No. PIA39256). One mmol of biotin was reacted with 1 mmol of conjugate for 1 hour at room temperature. Unbound biotin was separated from biotinylated conjugate with a PD-10 desalting column (GE Lifesciences/Cytiva, Marlborough, MA, Catalog No. 17085101). The biotinylation ratio was quantitated using the Pierce Biotin Quantitation Kit (Thermo Fisher Scientific, Waltham, MA, Catalog No. PI28005). DBP was purchased from Athens Research and Technology (Athens, GA, Catalog No. 16-16-070307).
Affinity measurements were collected on the Octet Red96 using prehydrated Dip and Read Streptavidin (SA) Biosensors (ForteBio, Fremont, CA, Catalog No. 18-5021). Reagents were diluted into phosphate buffered saline (PBS) with 0.02% Tween 20 in a black 96-well plate. Biotinylated EXT607 or EXT608 were prepared at a biotin concentration of 50 μg/mL and loaded onto the SA tips for 2 minutes. A buffer-only negative loading control was used to measure non-specific binding of DBP to the SA biosensors. A titration of DBP ranging from 0 to 75 μM was prepared. DBP was associated to the loaded tips for 5 minutes and dissociated with buffer solution for 10 minutes.
In general terms: BLI is a label-free optical method that tracks binding on a fibre tip over time.

Data set [2] can be described thus: Single dose pharmacokinetics of EXT608 in healthy humans. Type of data set: in vivo. The settings on record: human. The method, then: EXT608 vastly improves the serum half-life in humans in a dose-dependent manner. Sterile EXT608 formulations were prepared at a concentration of 0.4 mg/ml in 10 mM sodium acetate buffer pH=5.5, 4.5% mannitol, and 0.25% Polysorbate 80 and filled into sterile vials. Healthy human participants were administered EXT608 by subcutaneous injection in the abdomen at doses of 0, 36, 108, 216, or 324 micrograms (n=3).
Pharmacokinetics: 4 ml Blood samples were collected at −24, −1, 0.5, 1, 2, 4, 8, 12, 18, 24, 36, 48, and 72 hours relative to dosing as well as on Days 5, 7, 14, 21, and 28 after dosing. They were processed to K2EDTA plasma. […] Pharmacokinetic parameters were calculated for each individual using Kinetica software (ThermoFisher Scientific, Waltham, MA), and the parameter means and standard deviations are given in Table 12. For the lower doses (36, 108, and 216 μg), an accurate elimination half-life (t1/2) could not be determined because of limited timepoints with EXT608 concentrations above the lower limit of quantitation.

[3] abbreviates: in vivo, 36 ug, single 36 μg SC.
Where [4] appears, read: in vivo, 108 ug, single 108 μg SC.
Where [5] appears, read: in vivo, 216 ug, single 216 μg SC.
[6] abbreviates: in vivo, 324 ug, single 324 μg SC.

Marks after values point to notes of the source that are not given here.

On to `C=C1CC[C@H](OCCCNC(=O)CCOCCOCCOCCOCCOCCOCCOCCOCCOCCOCCOCCOCCOCCOCCOCCOCCOCCOCCOCCOCCOCCOCCOCCOCCOCCOCCOCCOCCOCCOCCOCCOCCOCCOCCOCCOCCNC(=O)CCN2C(=O)CC(SC[C@H](NC(=O)[C@H](Cc3ccccc3)NC(=O)[C@H](CC(N)=O)NC(=O)[C@H](Cc3c[nH]cn3)NC(=O)[C@@H](NC(=O)[C@H](CC(=O)O)NC(=O)[C@H](CCC(N)=O)NC(=O)[C@H](CC(C)C)NC(=O)[C@H](CCCCN)NC(=O)[C@H](CCCCN)NC(=O)[C@H](CCCNC(=N)N)NC(=O)[C@H](CC(C)C)NC(=O)[C@H](Cc3c[nH]c4ccccc34)NC(=O)[C@H](CCC(=O)O)NC(=O)[C@@H](NC(=O)[C@H](CCCNC(=N)N)NC(=O)[C@H](CCC(=O)O)NC(=O)[C@H](CCSC)NC(=O)[C@H](CO)NC(=O)[C@H](CC(N)=O)NC(=O)[C@H](CC(C)C)NC(=O)[C@H](Cc3c[nH]cn3)NC(=O)[C@H](CCCCN)NC(=O)CNC(=O)[C@H](CC(C)C)NC(=O)[C@H](CC(N)=O)NC(=O)[C@H](Cc3c[nH]cn3)NC(=O)[C@H](CCSC)NC(=O)[C@H](CC(C)C)NC(=O)[C@H](CCC(N)=O)NC(=O)[C@@H](NC(=O)[C@H](CCC(=O)O)NC(=O)[C@H](CO)NC(=O)[C@@H](NC(=O)[C@@H](N)CO)C(C)C)[C@@H](C)CC)C(C)C)C(C)C)C(N)=O)C2=O)C/C1=C/C=C1\CCC[C@]2(C)[C@@H]([C@H](C)CCCC(C)(C)O)CC[C@@H]12` (stereo partly shown) [EXT608], for which, in data set [1], the Kd (as a rule, the constant that tells how readily two partners part at equilibrium) came to 5.2 µM. For the same compound, the tlast was 24 h in data set [2] (single 36 μg SC); 48/72^a in data set [2] (single 108 μg SC, 48 h (n = 1) or 72 h (n = 2)); 48/72/120 in data set [2] (single 216 μg SC); 168 h in data set [2] (single 324 μg SC). The AUC(0-t) (as a rule, exposure summed from dosing to a finite time, without extrapolation to infinity) in data set [2] (setting [3]) stood at 5.9 ± 2.7 ng·h/mL; in data set [2] (setting [4]), 29.2 ± 8.4 ng·h/mL; in data set [2] (setting [5]) it was 41.7 ± 17.4 ng·h/mL; in data set [2] (setting [6]), 118 ± 11 ng·h/mL. The Cmax (in general, the maximum level reached in the sampled fluid or tissue) was 0.49 ± 0.27 ng/mL in data set [2] (setting [3]), 1.2 ± 0.3 ng/mL in data set [2] (setting [4]), 1.3 ± 0.5 ng/mL in data set [2] (setting [5]) and 5 ± 2 ng/mL in data set [2] (setting [6]). For the same compound, the Tmax (usually the time from dosing to the highest level) in data set [2] (setting [3]) worked out at 3.3 ± 1.2 h; in data set [2] (setting [4]), 5.3 ± 2.3 h; in data set [2] (setting [5]), 4 h; in data set [2] (setting [6]), 2.7 ± 1.2 h. Also, the AUC(0-inf) (in general, total exposure, with the tail of the curve extrapolated) in data set [2] (setting [6]) turned out to be 151 ± 16 ng·h/mL. Further, the MRT (as a rule, a mean duration of stay, worked out from the concentration-time curve) in data set [2] (setting [6]) came out at 105 ± 18 h. Also, in data set [2] (setting [6]), the half-life (in general, how long it takes for the measured level to halve) was 90 ± 13 h. The Vd/F in data set [2] (in vivo, 324 ug, single 324 μg SC, read-out: VZ/F) amounted to 280 ± 42 L. For the same compound, in data set [2] (plasma, 324 ug, single 324 μg SC), the CL/F – broadly, clearance divided by bioavailability, as obtained after extravascular dosing – is 36.7 mL/min.
